Laboratory results as given in US20030049661A1 (JCR PHARMACEUTICALS, published 2003).

T1: constitutively active bovine Rab3A (Q81L), full-length, bait in pBTM116 (bovine, UniProt P11023 1-220)
T1 construct: also called active Rab3A (Q81L); not shown: fusion partner encoded by bait vector pBTM116
T1 sequence (looked up): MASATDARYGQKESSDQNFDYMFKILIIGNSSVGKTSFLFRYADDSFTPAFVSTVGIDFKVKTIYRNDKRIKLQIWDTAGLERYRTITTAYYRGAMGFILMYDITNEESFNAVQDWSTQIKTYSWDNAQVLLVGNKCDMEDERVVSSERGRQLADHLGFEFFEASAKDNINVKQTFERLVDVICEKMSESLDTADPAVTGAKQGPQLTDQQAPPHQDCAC


Assays:
[1] = target: endogenous Rim2 of PC12 cells; assay: cell-based or functional assay
[2] = target: T1, constitutively active bovine Rab3A …; assay: yeast two-hybrid, liquid β-galactosidase assay

8-Br-cAMP (1 mM)-induced, Ca2+-dependent GH secretion [1] [%]	binding result [2]	Molecule
34.9	–	wild-type cAMP-GEFII (expressed in PC12 cells from pSRα) (from UniProt Q9EQZ6 1-1011)
–	binds	rat Rim1 zinc finger domain (amino acid residues 1-204), prey in pVP16 (other, UniProt Q9JIR4 1-204, looked up, range 1-204; not shown: fusion partner encoded by prey vector pVP16) MSSAVGPRGPRPPTVPPPMQELPDLSHLTEEERNIIMAVMDRQKEEEEKEEAMLKCVVRDMAKPAACKTPRNAESQPHQPPLNIFRCVCVPRKPSSEEGGPERDWRLHQQFESYKEQVRKIGEEARRYQGEHKDDAPTCGICHKTKFADGCGHLCSYCRTKFCARCGGRVSLRSNNEDKVVMWVCNLCRKQQEILTKSGAWFFG
